Measured values from US20160264664A1 (Ablynx, published 2016).

T1: mouse P2X7 (mouse, UniProt Q9Z1M0 1-595)
T1 sequence: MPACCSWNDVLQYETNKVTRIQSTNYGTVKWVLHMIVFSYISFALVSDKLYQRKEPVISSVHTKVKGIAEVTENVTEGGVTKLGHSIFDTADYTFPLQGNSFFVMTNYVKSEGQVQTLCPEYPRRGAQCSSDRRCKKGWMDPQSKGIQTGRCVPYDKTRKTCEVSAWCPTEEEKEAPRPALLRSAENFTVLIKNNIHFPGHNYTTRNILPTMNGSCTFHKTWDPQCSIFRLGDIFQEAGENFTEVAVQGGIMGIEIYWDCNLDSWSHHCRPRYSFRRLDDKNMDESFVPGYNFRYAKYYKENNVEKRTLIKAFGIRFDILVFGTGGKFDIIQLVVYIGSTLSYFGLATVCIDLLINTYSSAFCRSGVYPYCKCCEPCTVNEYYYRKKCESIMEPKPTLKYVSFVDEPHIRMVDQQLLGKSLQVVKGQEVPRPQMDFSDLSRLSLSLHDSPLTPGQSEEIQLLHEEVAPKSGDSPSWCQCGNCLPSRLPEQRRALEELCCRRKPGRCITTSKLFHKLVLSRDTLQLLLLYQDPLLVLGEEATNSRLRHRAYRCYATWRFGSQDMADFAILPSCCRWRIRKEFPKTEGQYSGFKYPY

T2: human P2X7 (human, UniProt Q99572 1-595)
T2 construct: on transfected Hek293 cells; also called hP2X7
T2 sequence: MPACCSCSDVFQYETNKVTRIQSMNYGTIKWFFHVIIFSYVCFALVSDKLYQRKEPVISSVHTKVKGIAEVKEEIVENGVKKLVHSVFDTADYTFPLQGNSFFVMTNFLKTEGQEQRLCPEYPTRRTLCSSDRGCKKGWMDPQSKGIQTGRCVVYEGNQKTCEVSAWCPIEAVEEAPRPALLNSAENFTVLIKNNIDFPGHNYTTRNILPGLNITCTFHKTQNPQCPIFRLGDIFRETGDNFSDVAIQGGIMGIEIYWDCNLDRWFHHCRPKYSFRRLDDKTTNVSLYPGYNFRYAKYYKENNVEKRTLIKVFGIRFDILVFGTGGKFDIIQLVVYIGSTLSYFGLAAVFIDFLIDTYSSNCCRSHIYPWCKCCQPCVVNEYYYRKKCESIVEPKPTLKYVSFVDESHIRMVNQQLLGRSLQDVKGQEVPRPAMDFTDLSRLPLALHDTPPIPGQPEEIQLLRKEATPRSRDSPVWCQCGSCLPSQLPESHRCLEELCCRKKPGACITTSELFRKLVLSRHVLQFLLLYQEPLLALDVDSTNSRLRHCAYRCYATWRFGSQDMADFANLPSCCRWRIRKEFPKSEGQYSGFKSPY

T3: human P2X4 (human, UniProt Q99571 1-388)
T3 construct: whole, on cells; also called hP2X4
T3 sequence (looked up): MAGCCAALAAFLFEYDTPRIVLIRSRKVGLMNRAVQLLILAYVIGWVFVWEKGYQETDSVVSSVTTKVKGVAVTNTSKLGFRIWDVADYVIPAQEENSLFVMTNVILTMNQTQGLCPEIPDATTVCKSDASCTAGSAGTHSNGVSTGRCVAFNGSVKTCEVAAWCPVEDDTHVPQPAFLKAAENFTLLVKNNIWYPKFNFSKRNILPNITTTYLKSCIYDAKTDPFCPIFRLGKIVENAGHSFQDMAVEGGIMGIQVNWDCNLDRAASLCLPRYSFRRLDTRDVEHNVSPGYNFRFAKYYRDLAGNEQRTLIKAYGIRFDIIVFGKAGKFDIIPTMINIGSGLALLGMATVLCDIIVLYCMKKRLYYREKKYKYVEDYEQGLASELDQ

T4: mouse P2X7 mutant R151A (mouse, UniProt Q9Z1M0 1-595)
T4 construct: transiently transfected Hek293 cells
T4 sequence: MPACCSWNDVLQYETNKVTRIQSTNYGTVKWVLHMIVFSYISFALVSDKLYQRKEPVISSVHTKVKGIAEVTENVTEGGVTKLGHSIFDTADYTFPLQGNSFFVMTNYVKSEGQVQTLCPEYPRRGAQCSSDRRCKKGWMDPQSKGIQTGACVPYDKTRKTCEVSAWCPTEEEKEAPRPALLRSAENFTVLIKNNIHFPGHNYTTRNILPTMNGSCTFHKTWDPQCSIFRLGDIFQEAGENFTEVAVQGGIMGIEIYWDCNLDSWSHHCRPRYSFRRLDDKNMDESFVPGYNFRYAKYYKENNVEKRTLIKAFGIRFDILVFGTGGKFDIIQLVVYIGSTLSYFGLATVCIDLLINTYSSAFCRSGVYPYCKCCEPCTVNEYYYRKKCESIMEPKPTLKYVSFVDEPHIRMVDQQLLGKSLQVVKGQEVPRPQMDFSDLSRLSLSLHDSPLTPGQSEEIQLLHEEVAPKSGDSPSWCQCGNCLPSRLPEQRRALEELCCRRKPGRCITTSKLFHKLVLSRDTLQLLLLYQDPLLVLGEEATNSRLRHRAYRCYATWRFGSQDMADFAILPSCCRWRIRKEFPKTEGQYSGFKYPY


Legend:
[1] = target: T1, mouse P2X7; assay: cell-based or functional assay
[2] = target: T2, human P2X7; assay: flow cytometry, Nanobody pre-incubated with anti-Myc-FITC
[3] = target: T3, human P2X4; assay: as above
[4] = target: T1, mouse P2X7; assay: phage ELISA on fixed mP2X7-CHO vs untransfected CHO cells;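 further: phage culture supernatant diluted 10-fold, applied for 1 h to paraformaldehyde-fixed, BSA-blocked cells in 96-well plates, with bound phage read via HRP-linked anti-M13 antibody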
Description: (§1) Sub-confluent cells were rinsed with PBS and fixed using 4% paraformaldehyde in PBS for 10 minutes at RT. Fixed cells were washed three times with PBS, and blocked with 2% BSA in PBS for 2 hours. Following blocking, 10-fold diluted culture supernatant containing phage was added and incubated for 1 hour. Cell-bound phage was detected via mouse anti-M13-HRP-conjugate (GE Healthcare, Cat nr. E2886). Rat mAb Hano43 was used as positive control.

[5] = target: T4, mouse P2X7 mutant R151A; assay: flow cytometry, 1 µM Nanobody on transiently transfected Hek293 cells, normalised to Hano43 staining
Description: For flow cytometric assays, detection of Nanobodies was performed via anti-Myc and subsequent goat anti-mouse-PE conjugate, while an estimation of P2X7 expression densities was obtained via staining with rat monoclonal Hano43 followed by secondary anti-rat-PE conjugate.

[6] = target: T1, mouse P2X7; assay: phage ELISA on fixed mP2X7-CHO vs untransfected CHO cells; phage ELISA, phage-displayed Nanobody, Cho P2X7 vs wt signal ratio
Description: as §1

[7] = target: T1, mouse P2X7; assay: flow cytometry, purified Nanobody titrated on mP2X7-CHO cells
[8] = target: T1, mouse P2X7; assay: flow cytometry, periplasmic extract pre-incubated with anti-myc-FITC, on mP2X7-Hek293 cells;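 further: periplasmic extract diluted 10-fold and premixed 45 min at 4 °C with FITC anti-myc antibody, giving pseudo-bivalent Nanobodies, before binding to the cells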
Description: Ten-fold diluted PE were pre-incubation with 0.5 μg anti-myc FITC-conjugated antibodies (AbD Serotec, cat no. MCA2200F) (creating pseudo-bivalent Nanobodies in order to increase binding strength) in 0.1 ml PBS/10% FCS for 45 minutes at 4° C. […] Alternatively, sequential staining of 10-fold diluted PE with anti-myc FITC-conjugated antibodies was done after incubation with the cells.

[9] = target: T1, mouse P2X7; assay: phage ELISA, mP2X7-CHO vs control CHO cells
Description: as §1

[10] = target: T1, mouse P2X7; assay: cell-based or functional assay; remark: listed apart in the source

Binder	ATP IC50 by 2 uM NB (head prints 'mM'; ligand titration at fixed Nanobody, CD62L shedding, Yac-1 cells) [1]	IC50 (nM) against 20 uM NAD (CD62L shedding, Yac-1 cells) [1]	IC50 (nM) against 100 uM ATP (CD62L shedding, Yac-1 cells) [1]	binding result [2]	binding result [3]	Fold Cho P2X7/wt (phage ELISA) [4]	reduction of binding against WT mP2X7 [5]	Fold Cho P2X7/wt (phage ELISA) [6]	EC50 [7]	MFI FACS (pre-Myc incubation) [8]	absorption ratio (ELISA) [9]	EC50, enhancement of CD62L-ectodomain shedding at 1.5 µM NAD [10]	EC50, enhancement of CD62L-ectodomain shedding at 33 µM ATP [10]
P2X7PMP7H6 (VHH, family 11; on phage or c-myc/His6-tagged in assays) VHH: EVQLVESGGGLVQPGGSLRLSCVVSGSMYRIDNMGWYRQAPGKQRELVATVTRGDITNYADSVKGRFTIGRDNAKNTVYLQMNSLKPADTAVYYCNIDSYIIGAGVRDYWGRGTQVTVSS	0.494 mM	208 nM	123 nM	no binding (tested: 147 nM)	no binding (tested: 147 nM)	23 fold	> 90%						
P2X7PMP2C4 (VHH, family 1; on phage or c-myc/His6-tagged in assays) VHH: EVQLVESGGDVVQAGGSLRLSCLASGFTFDDYAIGWFRQAPGKEREGISCISSTGNVFYADSVKGRFTISSDKEKNTLYLQMNSLKPEDTAVYHCAAGHFTVDSGKVLLRTDISSWGQGTQVTVSS				no binding (tested: 147 nM)	no binding (tested: 147 nM)			4 fold					
P2X7PMP20A11 (VHH, family 24; on phage or c-myc/His6-tagged in assays) VHH: EVQLVESGGRVMQTGGSLRLSCAASGHTFNDYNMGWFRQAPGKELEFLAGINWSGMSTWYADSVKDRFTISRDNNKNTVFLQMNSLEPGDTAVYYCAARQWISTIILTAPSQYDYWGQGTQVTVSS				no binding (tested: 147 nM)	no binding (tested: 147 nM)			11 fold					
P2X7PMP7D5 (VHH, family 14; on phage or c-myc/His6-tagged in assays) VHH: EVQLVESGGGLVQAGDSLRLSCAASGRTFSSVAVGWFRQAPGKERDFVAWISWSGDSTYYADSVKGRFTASRDNVNNTVYLQMNSLKPEDTADYYCAAAWKYDRASYDFPEAYDYWGQGTQVTVSS				no binding (tested: 147 nM)	no binding (tested: 147 nM)	14 fold	> 90%		3 nM				
P2X7PMP13F6 (VHH, family 20; on phage or c-myc/His6-tagged in assays) VHH: EVQLVESGGGLVQPGGSLRLSCAASGFTFSTNIMTWVRQAPGKGLEWISTINSGGGTTTYADSVRGRFTISRDNAKNMLYLQMSSLKPEDTALYYCITPRGVKGRGTQVTVSS				no binding (tested: 147 nM)	no binding (tested: 147 nM)			20 fold					
P2X7PMP8G12 (VHH, family 5, 3; on phage or c-myc/His6-tagged in assays; also called 8012) VHH: KVQLVESGGGLVQAGGSLRLSCAASGSFFRVNNMAWYRQGPGKQRELVADITRGDRTNYADSVNGRFTISRDNVRNTVYLQMNGLKPEDTAVYYCYATIELGVLEPRDYWGQGTQVTVSS	0.29 mM	82 nM	55 nM	no binding (tested: 147 nM)	no binding (tested: 147 nM)	36 fold	> 90%			166 MFI	36 ratio		
P2X7PMP6B7 (VHH, family 16; on phage or c-myc/His6-tagged in assays) VHH: EVQLVESGGGLVQAGGSLRLSCVVSGRTFSAMGWFRQAPGKEREFVATVGWNPMNSYYGDSVKGRFTIFRDNAKNTVYLQMNSLKPEDTAVYYCAGSGSLLDVTSEAVYTDWGQGTQVTVSS				no binding (tested: 147 nM)	no binding (tested: 147 nM)	24 fold	> 90%						
P2X7PMP7E2 (VHH, family 3; on phage or c-myc/His6-tagged in assays) VHH: EVQLVESGGGLVQAGGSLRLSCAAPERTYSMGWFRQAPGKEREFVAGSGWDGIPTRYADSVKGRFTISRDNAKNTVSLQMSGLKPEDTAIYYCATGTSVYHYQYWGQGTQVTVSS				no binding (tested: 147 nM)	no binding (tested: 147 nM)	25 fold	> 90%		4.3 nM				
P2X7PMP14D5 (VHH, family 17; on phage or c-myc/His6-tagged in assays) VHH: KVQLVESGGGLVQAGGSLRLSCAASGSPISSYAMGWYRQAPGKPRELVARIYTGGTAWYEDSVKGRFTISRDNAQNTVYLQMNSLKSEDTAVYYCHGRVRYDYWGQGTQVTVSS	0.016 mM				no binding (tested: 147 nM)	8 fold						4.1 nM	22.6 nM
